Results published in patent US8431365B2, “β1,3-N-acetyl-D-galactosamine transferase protein, nucleic acid encoding the same and method of examining canceration using the same” (National Institute of Advanced Industrial Science and …, priority 2003, dated 2013).
Each block holds one molecule with its values, some of them ahead of it.

Tests used:
Type in all cases: biochemical
human G34 protein [1] = target: T1, human G34 protein (Homo sapiens, UniProt Q8NCR0); experiment: Screening of GalNAc transferase activity (acceptor substrate specificity, monosaccharide acceptors); settings: 10 nmol acceptor, MES pH 6.5, MnCl2 10 mM, 37° C. 16 hours
T1 construct: made in house; host or cells: Sf21 insect cells (baculovirus, pFBIF-G34A)
T1 sequence (Q8NCR0 36-500): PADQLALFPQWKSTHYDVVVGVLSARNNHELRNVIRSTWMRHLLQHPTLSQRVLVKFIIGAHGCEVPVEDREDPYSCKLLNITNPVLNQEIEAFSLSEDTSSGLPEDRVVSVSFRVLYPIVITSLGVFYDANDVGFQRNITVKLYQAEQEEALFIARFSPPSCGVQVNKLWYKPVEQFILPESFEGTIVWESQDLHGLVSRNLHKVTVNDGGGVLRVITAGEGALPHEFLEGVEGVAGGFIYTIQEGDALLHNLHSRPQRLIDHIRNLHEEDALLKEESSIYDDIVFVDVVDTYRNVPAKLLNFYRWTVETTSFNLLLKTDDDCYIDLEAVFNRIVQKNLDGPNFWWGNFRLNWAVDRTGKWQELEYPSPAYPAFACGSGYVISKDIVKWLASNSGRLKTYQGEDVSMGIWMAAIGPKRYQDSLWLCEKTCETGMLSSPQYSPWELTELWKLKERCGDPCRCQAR
Excerpt: The following reaction system was used for examining the G34 enzyme protein for its acceptor substrate specificity in its GalNAc transfer activity.
In the reaction solutions shown below, each of the following was used at 10 nmol as an acceptor substrate: pNp-α-Gal, oNp-β-Gal, Bz-α-GlcNAc, pNp-β-GlcNAc, Bz-α-GalNAc, pNp-β-GalNAc, pNp-α-Glc, pNp-β-Glc, pNp-β-GlcA, pNp-α-Fuc, pNp-α-Xyl, pNp-β-Xyl and pNp-α-Man (all purchased from SIGMA), wherein “Gal” represents a D-galactose residue, “Xyl” represents a D-xylose residue, “Fuc” represents a […] residue, “Man” represents a D-mannose residue and “GlcA” represents a glucuronic acid residue.
Each reaction solution was prepared as follows (final concentrations in parentheses): each substrate (10 nmol), MES (2-morpholinoethanesulfonic acid) (pH 6.5, 50 mM), MnCl2 (10 mM), Triton X-100 (trade name) (0.1%), UDP-GalNAc (2 mM) and UDP-[^14C]GlcNAc (40 nCi) were mixed and supplemented with 5 μl G34 enzyme solution, followed by dilution with H2O to a total volume of 20 μl (see Table 1).
The above reaction mixtures were each reacted at 37° C. for 16 hours. After completion of the reaction, 200 μl H2O was added and each mixture was lightly centrifuged to obtain the supernatant. […] The eluate was mixed with 5 ml liquid scintillator ACSII (Amersham Biosciences) and measured for the amount of radiation with a scintillation counter (Beckman Coulter).

human G34 protein [2] = target: T1, human G34 protein; experiment: Time course of G34 enzymatic activity with Bz-β-GlcNAc as acceptor
human G34 protein [3] = target: T1, human G34 protein; experiment: Optimum buffer and optimum pH for GalNAc transferase activity of G34; settings: acceptor pNp-β-GlcNAc
Procedure: The following reaction system was used for examining the optimum buffer and pH for the GalNAc transferase activity of G34. The acceptor substrate used was pNp-β-GlcNAc.
Any one of the following buffers was used (final concentrations in parentheses): MES (2-morpholinoethanesulfonic acid) buffer (pH 5.5, 5.78, 6.0, 6.5 and 6.75, 50 mM), sodium cacodylate buffer (pH 5.0, 5.6, 6.0, 6.2, 6.6, 6.8, 7.0, 7.2, 7.4 and 7.5, 25 mM) and N-[2-hydroxyethyl]piperazine-N′-[2-ethanesulfonic acid](HEPES) buffer (pH 6.75, 7.00, 7.30, 7.40 and 7.50, 14 mM). The substrate (10 nmol), MnCl2 (10 mM), Triton CF-54 (trade name) (0.3%), UDP-GalNAc (2 mM) and […] (40 nCi) were mixed and supplemented with 5 μl G34 enzyme solution, followed by dilution with H2O to a total volume of 20 μl.
The above reaction mixtures were each reacted at 37° C. for 16 hours. After completion of the reaction, 200 μl H2O was added and each mixture was lightly centrifuged to obtain the supernatant. The supernatant was passed through a Sep-Pak plus C18 Cartridge (Waters), which had been washed once with 1 ml methanol and twice with 1 ml H2O and then equilibrated, to allow the substrate and product in the supernatant to adsorb to the cartridge. After washing the cartridge twice with 1 ml H2O, the adsorbed substrate and product were eluted with 1 ml methanol. The eluate was mixed with 5 ml liquid scintillator ACSII (Amersham Biosciences) and measured for the amount of radiation with a scintillation counter (Beckman Coulter).

[4] = sodium cacodylate buffer pH 5.0
[5] = sodium cacodylate buffer pH 5.6
[6] = sodium cacodylate buffer pH 6.0
[7] = sodium cacodylate buffer pH 6.2
[8] = sodium cacodylate buffer pH 6.6
[9] = sodium cacodylate buffer pH 6.8
[10] = sodium cacodylate buffer pH 7.0
[11] = sodium cacodylate buffer pH 7.2
[12] = sodium cacodylate buffer pH 7.4

Molecule: CC(=O)N[C@H]1[C@H](Oc2ccc([N+](=O)[O-])cc2)O[C@H](CO)[C@@H](O)[C@@H]1O [pNp-β-GlcNAc]
- GalNAc transfer to acceptor substrate (human G34 protein [1]): ability to transfer GalNAc to pNp-β-GlcNAc

- Area (%) (human G34 protein [2]; reaction time 1 hour): 0%
- Area (%) (human G34 protein [2]; reaction time 2 hours): 2.388%
- Area (%) (human G34 protein [2]; reaction time 4 hours): 6.195%
- Area (%) (human G34 protein [2]; reaction time 16 hours): 13.719%
- + (amount of radiation) (human G34 protein [3]; HEPES buffer pH 6.75): 4894
- HEPES (+ minus −) (human G34 protein [3]; HEPES buffer pH 6.75): 4745
- + (amount of radiation) (human G34 protein [3]; HEPES buffer pH 7.00): 4912
- HEPES (+ minus −) (human G34 protein [3]; HEPES buffer pH 7.00): 4791
- + (amount of radiation) (human G34 protein [3]; HEPES buffer pH 7.30): 4294
- HEPES (+ minus −) (human G34 protein [3]; HEPES buffer pH 7.30): 4167
- + (amount of radiation) (human G34 protein [3]; HEPES buffer pH 7.40): 6630
- HEPES (+ minus −) (human G34 protein [3]; HEPES buffer pH 7.40): 6510
- + (amount of radiation) (human G34 protein [3]; HEPES buffer pH 7.50): 6895
- HEPES (+ minus −) (human G34 protein [3]; HEPES buffer pH 7.50): 6655
- + (amount of radiation) (human G34 protein [3]; MES buffer pH 5.50): 3735
- MES (+ minus −) (human G34 protein [3]; MES buffer pH 5.50): 3538
- + (amount of radiation) (human G34 protein [3]; MES buffer pH 5.78): 3755
- MES (+ minus −) (human G34 protein [3]; MES buffer pH 5.78): 3571
- + (amount of radiation) (human G34 protein [3]; MES buffer pH 6.00): 2514
- MES (+ minus −) (human G34 protein [3]; MES buffer pH 6.00): 2373
- + (amount of radiation) (human G34 protein [3]; MES buffer pH 6.50): 1981
- MES (+ minus −) (human G34 protein [3]; MES buffer pH 6.50): 1247
- + (amount of radiation) (human G34 protein [3]; MES buffer pH 6.75): 3289
- MES (+ minus −) (human G34 protein [3]; MES buffer pH 6.75): 3153
- + (amount of radiation) (human G34 protein [3]; [4]): 6042
- + (amount of radiation) (human G34 protein [3]; [5]): 3353
- + (amount of radiation) (human G34 protein [3]; [6]): 2689
- + (amount of radiation) (human G34 protein [3]; [7]): 907
- + (amount of radiation) (human G34 protein [3]; [8]): 1093
- + (amount of radiation) (human G34 protein [3]; [9]): 2488
- + (amount of radiation) (human G34 protein [3]; [10]): 4965
- + (amount of radiation) (human G34 protein [3]; [11]): 4377
- + (amount of radiation) (human G34 protein [3]; [12]): 4930
B1: G34: human β1,3-N-acetyl-D-galactosaminyltransferase protein (SEQ ID NO: 2), expressed FLAG-tagged from amino acid 36 to the C-terminal end (protein, listed as Homo sapiens)
chain: PADQLALFPQWKSTHYDVVVGVLSARNNHELRNVIRSTWMRHLLQHPTLSQRVLVKFIIGAHGCEVPVEDREDPYSCKLLNITNPVLNQEIEAFSLSEDTSSGLPEDRVVSVSFRVLYPIVITSLGVFYDANDVGFQRNITVKLYQAEQEEALFIARFSPPSCGVQVNKLWYKPVEQFILPESFEGTIVWESQDLHGLVSRNLHKVTVNDGGGVLRVITAGEGALPHEFLEGVEGVAGGFIYTIQEGDALLHNLHSRPQRLIDHIRNLHEEDALLKEESSIYDDIVFVDVVDTYRNVPAKLLNFYRWTVETTSFNLLLKTDDDCYIDLEAVFNRIVQKNLDGPNFWWGNFRLNWAVDRTGKWQELEYPSPAYPAFACGSGYVISKDIVKWLASNSGRLKTYQGEDVSMGIWMAAIGPKRYQDSLWLCEKTCETGMLSSPQYSPWELTELWKLKERCGDPCRCQAR
modifications: FLAG tag
- Sodium cacodylate (+ minus −) (human G34 protein [3]; [4]): 5838
- Sodium cacodylate (+ minus −) (human G34 protein [3]; [5]): 3194
- Sodium cacodylate (+ minus −) (human G34 protein [3]; [6]): 2429
- Sodium cacodylate (+ minus −) (human G34 protein [3]; [7]): 769
- Sodium cacodylate (+ minus −) (human G34 protein [3]; [8]): 957
- Sodium cacodylate (+ minus −) (human G34 protein [3]; [9]): 2230
- Sodium cacodylate (+ minus −) (human G34 protein [3]; [10]): 4706
- Sodium cacodylate (+ minus −) (human G34 protein [3]; [11]): 4068
- Sodium cacodylate (+ minus −) (human G34 protein [3]; [12]): 4626
